Data taken from paper PMC12246787.
One block for each substance: values may come before it.

Biological target: FcγRIIIa receptor immobilised on the TSKgel FcR-IIIA-NPR column (UniProt P08637)
Assay: FcγRIIIa affinity chromatography; FcγRIIIa immobilised on a TSKgel FcR-IIIA-NPR column (4.6 x 75 mm); antibody injected (20 µL); 0.05 M sodium citrate, 0.150 M NaCl, 10 min at pH 6.5, then linear gradient to pH 4.5 in 40 min; 0.375 mL/min; 20°C; UV 280 nm; eluting peaks collected and their glycoforms assigned by HILIC-MS

Chain of UniProt P08637 (P08637 17-208): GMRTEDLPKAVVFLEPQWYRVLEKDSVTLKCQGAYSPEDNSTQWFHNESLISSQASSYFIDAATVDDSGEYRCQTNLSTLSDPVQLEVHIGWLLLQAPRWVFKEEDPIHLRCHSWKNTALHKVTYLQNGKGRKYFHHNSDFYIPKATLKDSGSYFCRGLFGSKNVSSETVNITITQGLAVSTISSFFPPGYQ

RT (min) on the FcγRIIIa column, peak #1 (G0F 74%, G1F 25%): 22.9 min
RT (min) on the FcγRIIIa column, peak #2 (G0F 43%, G1F 43%, G2F 14%): 28.2 min
RT (min) on the FcγRIIIa column, peak #3 (G1F 72%, G2F 28%): 33.2 min
Substance: commercial rituximab (MabThera) produced in CHO cells (antibody)

RT (min) on the FcγRIIIa column, peak #1 (G0 100%): 30.5 min
Substance: rituximab produced in glycoengineered ΔXF N. benthamiana plants (antibody)

RT (min) on the FcγRIIIa column, peak #1 (Man8 14%, Man9 86%): 24.9 min
Substance: rituximab produced in wild-type N. benthamiana agroinfiltrated in the presence of the kifunensine mannosidase I inhibitor (antibody)

RT (min) on the FcγRIIIa column, peak #1 (G0 100%): 30.3 min
Substance: rituximab produced in wild-type N. benthamiana, G0 glycoform (antibody)
